# Measurements published in PMC2774266, “Misguided Transcriptional Elongation Causes Mixed Lineage Leukemia” (PLoS Biology, 2009).
# B1: ENL (eleven nineteen leukemia protein), full-length two-hybrid fusion (natural protein, human, UniProt Q03111 1-559, looked up)
# chain: MDNQCTVQVRLELGHRAQLRKKPTTEGFTHDWMVFVRGPEQCDIQHFVEKVVFWLHDSFPKPRRVCKEPPYKVEESGYAGFIMPIEVHFKNKEEPRKVCFTYDLFLNLEGNPPVNHLRCEKLTFNNPTTEFRYKLLRAGGVMVMPEGADTVSRPSPDYPMLPTIPLSAFSDPKKTKPSHGSKDANKESSKTSKPHKVTKEHRERPRKDSESKSSSKELEREQAKSSKDTSRKLGEGRLPKEEKAPPPKAAFKEPKMALKETKLESTSPKGGPPPPPPPPPRASSKRPATADSPKPSAKKQKKSSSKGSRSAPGTSPRTSSSSSFSDKKPAKDKSSTRGEKVKAESEPREAKKALEVEESNSEDEASFKSESAQSSPSNSSSSSDSSSDSDFEPSQNHSQGPLRSMVEDLQSEESDEDDSSSGEEAAGKTNPGRDSRLSFSDSESDNSADSSLPSREPPPPQKPPPPNSKVSGRRSPESCSKPEKILKKGTYDKAYTDELVELHRRLMALRERNVLQQIVNLIEETGHFNVTNTTFDFDLFSLDETTVRKLQSCLEAVAT
# Target: endogenous CDK9 (cyclin dependent kinase 9, kinase of pTEFb) (human (endogenous in HEK293T, SEM and …, UniProt P50750 1-372))
# Sequence (P50750 whole entry): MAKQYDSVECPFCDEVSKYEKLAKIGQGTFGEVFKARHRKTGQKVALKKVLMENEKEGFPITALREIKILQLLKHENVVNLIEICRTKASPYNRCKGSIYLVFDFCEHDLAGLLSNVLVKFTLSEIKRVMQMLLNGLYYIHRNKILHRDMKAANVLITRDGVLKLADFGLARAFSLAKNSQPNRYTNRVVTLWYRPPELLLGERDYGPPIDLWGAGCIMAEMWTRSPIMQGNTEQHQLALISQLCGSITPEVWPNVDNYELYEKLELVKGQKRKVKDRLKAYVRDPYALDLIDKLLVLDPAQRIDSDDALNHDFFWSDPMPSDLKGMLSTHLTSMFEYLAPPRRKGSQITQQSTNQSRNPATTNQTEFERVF
# Test: cell-based or functional assay
binder,measurement,value
B1,"luciferase in the RNA tethering assay (TAR/IIb reporter) of Rev-ENL in 293T cells, relative to Rev alone; contact with pTEFb indirect",~6 fold
